Results: patent US20180169199A1

What was measured:
[1] = biological target: HLA-A*02:01 molecule (product of HLA-A*02:01 gene) (human); test: flow cytometry, T2 cells + β2m, peptide dilution series, BB7.2 staining
[2] = biological target: HLA-A*02:06 molecule (product of HLA-A*02:06 gene) (human); test: flow cytometry, RA2.6 cells, peptide dilution series, BB7.2 staining
[3] = biological target: HLA-A*24:02 molecule (product of HLA-A*24:02 gene) (human); test: flow cytometry, acid-stripped C1R-A24 cells + β2m, peptide dilution series, 17A12 staining

| Binder | Binding Experiment Data (log Kd) [1] [log Kd] | Binding Experiment Data (log Kd) [2] [log Kd] | Binding Experiment Data (log Kd) [3] [log Kd] |
| --- | --- | --- | --- |
| LLLDVAPLS (modifications not checked) [peptide … (SEQ ID NO: 8)] | -6.06 | -6.17 | – |
| FYPEEISSM (modifications not checked) [peptide … (SEQ ID NO: 3)] | – | – | -7.66 |
| YGAAVQAAI (modifications not checked) [peptide … (SEQ ID NO: 7)] | -4.9 | -5.37 | -5.5 |
| KLLQDFFNG (modifications not checked) [peptide … (SEQ ID NO: 4)] | -4.96 | -5.27 | – |
| VLVGGSTRI (modifications not checked) [peptide … (SEQ ID NO: 5)] | -4.86 | -5.07 | -6.17 |
| TFDVSILTI (modifications not checked) [peptide … (SEQ ID NO: 2)] | – | – | -6.24 |
| MVLTKMKEI (modifications not checked) [peptide … (SEQ ID NO: 6)] | -4.59 | -5.53 | -5.82 |
| AMTKDNNLL (modifications not checked) [peptide … (SEQ ID NO: 9)] | -5.56 | -4.28 | -5.49 |
| ITRARFEEL (modifications not checked) [peptide … (SEQ ID NO: 10)] | -4.33 | -5.58 | -5.21 |

Next, values leading:

| Binding Experiment Data (log Kd) [1] [log Kd] | Binding Experiment Data (log Kd) [2] [log Kd] | Binding Experiment Data (log Kd) [3] [log Kd] | Binder |
| --- | --- | --- | --- |
| -4.56 | -5.18 | – | NLLGRFELS (modifications not checked) [peptide … (SEQ ID NO: 11)] |
| -6.15 | -6.45 | – | AQIHDLVLV (modifications not checked) [peptide … (SEQ ID NO: 12)] |
| -4.76 | -5.59 | -4.37 | SVTNAVITV (modifications not checked) [peptide … (SEQ ID NO: 15)] |
| -5.09 | -5.02 | – | YAFNMKSAV (modifications not checked) [peptide … (SEQ ID NO: 13)] |
| -5.91 | -6.42 | – | NQPGVLIQV (modifications not checked) [peptide … (SEQ ID NO: 14)] |
